Each block holds one binder with its values, some of them ahead of it. Starred links: 1 amine or outer side, 2 acyl side, 3 side chain; linkers in the order of their positions; H or OH if unused. Positions of bridges follow the written chain, without caps; N, C: chain ends. Non-standard residues stand in square brackets, D forms with d. Chains are numbered I, II in the order given. No end group written: not given here. *: point of attachment. TATA = O=C(CC[*:1])N1CN(C(=O)CC[*:2])CN(C(=O)CC[*:3])C1; Hyp = O=C(O)[C@@H]1C[C@@H](O)CN1; hArg = N=C(N)NCCCC[C@H](N)C(=O)O; tBuAla = CC(C)(C)C[C@H](N)C(=O)O; dK(PYA) = not defined here; Nle = CCCC[C@H](N)C(=O)O; Pent4ynoyl = C#CCCC(=O)*
Biological target: CD137 on Jurkat reporter cells (Promega kit CS196005) (UniProt Q07011)
Test: cell-based or functional assay

Chain of CD137 on Jurkat reporter cells (Promega kit CS196005) (Q07011 24-255 limits assumed): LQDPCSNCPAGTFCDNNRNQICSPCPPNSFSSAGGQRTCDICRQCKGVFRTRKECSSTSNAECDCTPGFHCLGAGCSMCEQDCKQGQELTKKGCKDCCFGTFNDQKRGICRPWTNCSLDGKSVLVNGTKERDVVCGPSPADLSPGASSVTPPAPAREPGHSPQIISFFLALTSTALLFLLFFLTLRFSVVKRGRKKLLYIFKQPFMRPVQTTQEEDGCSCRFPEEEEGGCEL

EC50 (nM), PC3 co-culture: 0.16 nM
Emax (fold induction over background), PC3 (fold over background): 68.8
B1: BCY12975 (peptide)
peptide 1: Ac-A[hArg]DC[Hyp]KVNPLCLHP[dD]W[hArg]C
peptide 2: Ac-C[tBuAla]PE[dK(PYA)]PYCFADPY[Nle]CA
modifications: linker I:4-I:11-I:18, II:1-II:8-II:15 via TATA; linker I:6-II:5 via N‑(acid-PEG3)‑N‑bis(PEG3-azide); reading uncertain; also: two CD137 bicycles per complex (EphA2:CD137 1:2)

EC50 (nM), PC3 co-culture: 0.18 nM
Emax (fold induction over background), PC3 (fold over background): 73.2
B2: BCY12976 (peptide)
peptide 1: Ac-A[hArg]DC[Hyp]LVNPLCKHP[dD]W[hArg]C
peptide 2: Ac-C[tBuAla]PE[dK(PYA)]PYCFADPY[Nle]CA
modifications: linker I:4-I:11-I:18, II:1-II:8-II:15 via TATA; linker I:12-II:5 via N‑(acid-PEG3)‑N‑bis(PEG3-azide); reading uncertain; also: two CD137 bicycles per complex (EphA2:CD137 1:2)

EC50 (nM), PC3 co-culture: 0.08 nM
Emax (fold induction over background), PC3 (fold over background): 67.2
B3: BCY12977 (peptide)
peptide 1: A[hArg]DC[Hyp]LVNPLCLHP[dE]W[hArg]C
peptide 2: Ac-C[tBuAla]PE[dK(PYA)]PYCFADPY[Nle]CA
modifications: linker I:4-I:11-I:18, II:1-II:8-II:15 via TATA; linker II:N-II:5 via N‑(acid-PEG3)‑N‑bis(PEG3-azide); reading uncertain; also: two CD137 bicycles per complex (EphA2:CD137 1:2)

Fold Improvement over BCY9173, EC50, PC3: 7.21 fold
Fold Improvement over Emax (BCY9173), PC3: 1.62 fold
B4: BCY14334 (peptide)
peptide 1: A[hArg]DC[Hyp]LVNPLCLKP[dD]W[hArg]C
peptide 2: Ac-C[tBuAla]PE[dK](Pent4ynoyl)PYCFADPY[Nle]CA
modifications: linker I:4-I:11-I:18 via TATA; linker II:1-II:8-II:15 via TATA (inferred); not fully specified (some residues); also: N-(acid-PEG3)-N-bis(PEG3-azide) linker at chain 1 N-terminus, joined to dLys(PYA)4 of two BCY8928 chains (1:2 complex)

EC50 (nM), PC3 co-culture: 0.08 nM
Emax (fold induction over background), PC3 (fold over background): 71.6
B5: BCY12979 (peptide)
peptide 1: A[hArg]DC[Hyp]LVNPLCLHP[dD]W[hArg]C
peptide 2: Ac-C[tBuAla]PE[dK(PYA)]PYCFADPY[Nle]CA
modifications: linker I:4-I:11-I:18, II:1-II:8-II:15 via TATA; not fully specified (bridges); reading uncertain; also: two CD137 bicycles per complex (EphA2:CD137 1:2)

EC50 (nM), PC3 co-culture: 0.16 nM
Emax (fold induction over background), PC3 (fold over background): 48.6
B6: BCY12973 (peptide)
peptide 1: Ac-A[hArg]DC[Hyp]LVNPLCLHP[dD]W[hArg]CK
peptide 2: Ac-C[tBuAla]PE[dK(PYA)]PYCFADPY[Nle]CA
modifications: linker I:4-I:11-I:18, II:1-II:8-II:15 via TATA; linker I:19-II:5 via N‑(acid-PEG3)‑N‑bis(PEG3-azide); reading uncertain; also: two CD137 bicycles per complex (EphA2:CD137 1:2)

Fold Improvement over BCY9173, EC50, PC3: 7.14 fold
Fold Improvement over Emax (BCY9173), PC3: 0.94 fold
B7: BCY14335 (peptide)
peptide 1: {Palmitoyl‑Glu‑LysN3-Pent4ynoyl}-A[hArg]DC[Hyp]LVNPLCLKP[dD]W[hArg]C
peptide 2: Ac-C[tBuAla]PE[dK](Pent4ynoyl)PYCFADPY[Nle]CA
modifications: linker I:4-I:11-I:18, II:1-II:8-II:15 via TATA (inferred); not fully specified; also: 1:2 complex: chain 1 Lys ('Lys 8') joined to dLys(PYA)5 of two chain 2 copies via N-(acid-PEG3)-N-bis(PEG3-azide) linker

Reference: patent US20230129258A1, “HETEROTANDEM BICYCLIC PEPTIDE COMPLEXES” (BicycleTx Limited, priority 2019, published 2023)
